Data from publication PMC9670587.

Experiments:
[1] = molecular target: FcγRIIA (UniProt P12318)
[2] = molecular target: FcγRIIIA (UniProt P08637)
UniProt P08637, sequence (P08637 17-254): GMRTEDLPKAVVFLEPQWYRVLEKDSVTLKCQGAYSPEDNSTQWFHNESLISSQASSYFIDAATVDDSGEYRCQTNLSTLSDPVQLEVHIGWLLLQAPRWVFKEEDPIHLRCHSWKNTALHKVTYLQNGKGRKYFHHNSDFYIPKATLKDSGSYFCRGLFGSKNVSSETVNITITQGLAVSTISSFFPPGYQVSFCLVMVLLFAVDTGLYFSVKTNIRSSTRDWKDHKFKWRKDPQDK

UniProt P12318, sequence (P12318 34-317): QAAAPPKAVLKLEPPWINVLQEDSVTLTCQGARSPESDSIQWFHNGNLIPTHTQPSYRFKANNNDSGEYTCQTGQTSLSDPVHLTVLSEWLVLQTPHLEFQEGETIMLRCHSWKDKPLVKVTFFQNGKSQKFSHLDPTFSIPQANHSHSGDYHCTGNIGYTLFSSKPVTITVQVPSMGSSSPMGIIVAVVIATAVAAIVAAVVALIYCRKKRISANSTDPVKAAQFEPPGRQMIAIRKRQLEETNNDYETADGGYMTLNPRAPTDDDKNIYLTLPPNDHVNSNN

IMM01, recombinant SIRPα-Fc fusion protein
antibody-dependent cellular phagocytosis (ADCP), EC50 [1]: 0.139 nM
antibody-dependent cellular phagocytosis (ADCP), EC50 [2]: 0.139 nM
